Data taken from patent US10526691B2, “Functionalized surface” (priority 2015, dated 2020).
Ends that are not written are not given here.

Key:
S. epidemridis = test: Crystal violet absorbance of bacteria adhering to peptide-coated nitrided steel; type: cell-based; details: overnight at 37° C., FIG. 14
Description: Nitrided steel was incubated with a solution of an antimicrobial peptide having the sequence RRIYGRGYIRR (SEQ ID NO: 1) (25 µl, 10 mg/ml/cm^2) at room temperature for 1 hour with a HBTU/DIEA catalyst in DMF to produce a coated surface.
Coated surfaces were inoculated with […] bacterial cells (S. epidemridis) and incubated overnight at 37° C. The surfaces were then washed with PBS and stained using Crystal Violet ([…]) for 15 minutes at room temperature. The surfaces were washed three times to remove any residual stain and the stain lifted in 70% ethanol. The absorbance of crystal violet was read at 560 nm to quantify the level of stain (FIG. 14). The amount of stain is directly related to the number of bacteria.

[1] = Peptide fluorescence on nitrided titanium after environmental treatments; type: physicochemical; details: FIG. 9
Description: The durability of immobilized peptide on the surface of nitrided titanium was assessed following different environmental treatments, as shown in FIG. 9. […] (SEQ ID NO: 5)-coated titanium was incubated in control PBS solution, trypsin, Dettola or treated with sandpaper at room temperature for a suitable time which depended on the treatment used. The mean pixel number above the threshold was then assessed by fluorescence microscopy. Importantly, peptide fluorescence was retained after any of the environmental treatments, indicating a strong and durable interaction between peptide and metal.

[2] = system: colony forming unit (CFU) counts; test: CFU count on peptide-coated versus control nitrided α2 steel attached to areas with high predicted CFU counts; details: α2 steel coated with unlabelled peptide; swabs on days 1, 2, 7, 8 and 9; all areas tested; FIG. 7
Description: α2 steel was prepared using a standard nitriding process and coated with 1 µg/ml of the unlabelled peptide […] (SEQ ID NO: 5) using the method as described in Example 1. Peptide coated, or control uncoated steel samples were then attached to areas where high colony forming unit (CFU) counts were predicted (e.g. toilet seat, kitchen tap etc.). Cotton wool buds, dipped in saline, were used to swab surfaces on days 1, 2, 7, 8 and 9. Buds were placed in sterelin tubes and used to inoculate blood agar plates, following which plates were incubated for 48 hours at 37° C. before CFU counts were taken.

[3] = Peptide coverage of nitrided steel after environmental, cleaning or coating treatments, fluorescence microscopy; type: physicochemical
Description: (§1) The peptide percentage surface coverage of the metal was assessed by the use of fluorescent peptides and microscopy. Peptide coated metal was viewed by a fluorescence microscope at an exposure of 1.55 s using a 10× objective. Nine images for each 1 cm^2 piece of steel were obtained. Images were analysed using ImageJ software (NIH, MD, USA). The threshold from control images, obtained from nitrided metal which had not been treated with peptide, was adjusted until all of the pixels were removed, leaving an image with no staining. This acted as a control baseline. Images from corresponding experimental samples were then adjusted to this threshold value and the residual pixel count then recorded as a measure of peptide attachment.
Mild steel was nitrided using a standard process for 19 hours at 440° C. by Metaltech. The peptide […] tagged with a fluorescent label was immobilized on the surface of the nitrided steel as described in Example 1. Peptide-coated steel was incubated in the appropriate environmental treatment at room temperature for a suitable time which depended on the treatment used. Samples were washed with saline following treatment and peptide attachment analysed by microscopy as detailed in Example 1.
Mild steel was nitrided using a standard process by Metaltech. The peptide […] (SEQ ID NO: 5) tagged with a fluorescent label was immobilized on the surface of the nitrided steel as described in Example 1. Peptide-coated steel was incubated in the appropriate environmental treatment at room temperature for a suitable time which depended on the treatment used. Samples were washed with saline following treatment and peptide attachment analysed by microscopy as detailed in Example 1.
Steel was nitrided or plasma ferretic nitrocarburised as described in Example 1, after which the peptide […] (SEQ ID NO: 5), tagged with a fluorescent label was immobilised on the nitrided surface as described in Example 1.
Peptide-coated alpha steel samples were incubated in various standard cleaning or coating treatments at room temperature, for a suitable time which depended on the treatment used, in order to determine if any of these treatments affected the attachment of the peptide to the steel. […] This decrease may be partly accounted for by loss of fluorescence over the period of 3 weeks as the steel pieces were repeatedly exposed to light.

[4] = Peptide fluorescence on nitrided titanium over 1 to 4 weeks in PBS; type: physicochemical; details: FIG. 8; for change of pixel number: nitrided titanium in PBS
Description: Having established the durability and the efficacy of immobilized peptides on a steel surface, the efficacy of peptides immobilized on a titanium surface was assessed. Nitrided titanium was prepared by Metaltech. […] (SEQ ID NO: 5), tagged with a fluorescent label, was immobilised on the surface of the nitrided titanium as described previously. Peptide-coated samples were incubated in PBS solution at room temperature for between 1 and 4 weeks, following which fluorescence, and the resulting pixel number above threshold, was assessed as described previously by fluorescence microscopy.

bacteria [5] = test: Peptide-coated nitrided steel surfaces on door handles, city hospital Outpatients area, three months
Description: A further study was carried out in the Outpatients area of a city hospital. This is a very busy area of the hospital and sees a high volume of patient and staff traffic. The peptide used was […] (SEQ ID NO: 5), and the coated steel surfaces were prepared as in Example 8.
Control and coated surfaces were placed on door handles in the Outpatients area. […] We saw 1 colony growth from the surfaces, which is believed to be due to the frequency of use of the surfaces. Surfaces were touched on average every 2 minutes during an observation period and, in a lot of cases, the surfaces had been touched immediately prior to the swabbing being undertaken.

bacteria [6] = test: Bacterial growth (absorbance) on peptide-coated nitrided titanium used as growth plate; type: cell-based; details: antimicrobial-peptide-coated nitrided titanium, in comparison to the controls; FIG. 10
Description: Nitrided titanium was prepared by Metaltech, and coated as described previously with the peptide […] (SEQ ID NO: 5), aside from a control (peptide) group in which nitrided titanium was coated with a non-antimicrobial peptide, and a control (titanium) group where the nitrided titanium remained uncoated. A positive control group, consisting of uncoated tissue culture plastic, was also used. The surfaces were washed and used as growth plates for bacteria. One group of antimicrobial peptide-coated titanium surfaces was immediately used as a growth plate for bacteria (treatment (immediate)). Another antimicrobial peptide-coated titanium group (treatment (environment)) was treated with PBS, followed by trypsin/EDTA, followed by Dettol followed by sandpapering, following which the surfaces were used as a growth plate for bacteria. The Absorbance relates to the bacteria number growing on the surface after incubation (FIG. 10). Low values indicate no bacterial growth, while high values indicate high numbers of bacteria.

[7] = Peptide attachment to nitrided / nitrocarburised steel types, fluorescence microscopy pixel count; type: physicochemical; details: FIG. 1
Description: Nitrided metal surfaces were incubated overnight at room temperature on a rotamixer in a solution comprising a 9:0.5:0.5 ratio of dimethylformamide (DMF), DIPIA and HBTU, respectively, and 0.5 µg/ml of the peptide […] (SEQ ID NO: 5) tagged with a fluorescent label. Following incubation, surfaces were washed with DMF, which was replenished every 5 minutes for 50 minutes, followed by saline, which was also replenished every 5 minutes for 50 minutes, before being left to air dry.
as §1

bacteria [8] = test: Peptide-coated nitrided steel surfaces in a hospital unit over three months, bacteria counts
Description: A nitrided steel surface was coated with the peptide […] (SEQ ID NO: 5). The surface was dip-coated in a mixture of the peptide (3 µl of 10 mg/ml peptide per cm^2 of metal) and a catalyst (HBTU/DIEA mix) which adhered the peptide to the surface. Coating was carried out at room temperature for 12 hours.
Coated and uncoated steel surfaces were installed in a hospital unit, in the Accident and Emergency room, Operating Theatre, Ward 1 and the associated bathroom. Control surfaces and coated surfaces were situated in identical locations and tested over three months. After use the samples and data collected were sent to the University of Birmingham for analysis.

bacteria [9] = test: Long term study of peptide-coated surfaces on taps in a medical school, one year; details: taps in toilets of a medical school; after 12 months; FIG. 13
Text: The peptide-coated surfaces described in Examples 8 and 9 were installed in a medical school. The surfaces were placed on taps in the toilets and were swabbed over a period of one year.

With “RRIYGRGYIRR (RRYIGRGYIRR) [antimicrobial peptide coated on nitrided steel]” the “number of bacteria adhering to the surface (crystal violet absorbance at 560 nm)” value (S. epidemridis) was “significantly reduce the number of bacteria adhering to the surface”.
In the case of “RRRRRRGALAGRRRRRRGALAG (also: fluorescent tag, immobilized on steel or titanium) [antimicrobial peptide immobilized covalently on nitrided steel or titanium; fluorescently tagged in the attachment studies]”, the “peptide fluorescence after treatment” value ([1]; control solution, trypsin or Dettol) was “remained similar”, the “peptide fluorescence after treatment” value ([1]; mechanical agitation using sandpaper) was “retained, albeit at a lower level” and the “mean CFU count, peptide coated versus control” value [2] was “consistently higher mean CFU count on control pieces of metal”. For the same sequence, the “difference in pixel counts between treatments” value ([3]; P2 steel group as printed in the beta steel paragraph, FIG. 5, H=13.7, p=0.033) was “significant difference”, the “differences in pixel number between treatments” value ([3]; PlasOx 1 steel, FIG. 6, H=15.4 p=0.017) was “significant” and the “differences in pixel number between treatments” value ([3]; PlasOx 2 steel, FIG. 6, H=12.7 p=0.048) was “significant”. The “pixel number, PlasOx 2 steel versus PlasOx 1 steel” value ([3]; following environmental treatment, in most instances, FIG. 6) was “higher for PlasOx 2 steel than PlasOx 1 steel”, the “peptide coverage of nitrided steel before and after environmental treatments” value ([3]; mild steel nitrided 19 hours at 440° C., room temperature, FIG. 2) was “remains at a similar level” and the “peptide coverage of nitrided steel following environmental treatment” value ([3]; nitrided mild steel, room temperature, FIG. 3) was “remains constant”. For the same sequence, the “difference in pixel counts between treatments” value ([3]; α1 steels, FIG. 4, H=19.4 p=0.004) was “statistically significant difference”, the “difference in pixel counts between treatments” value ([3]; α2 steels, FIG. 4, H=12.4, p=0.053) was “no significant difference” and the “difference in pixel counts between treatments” value ([3]; α3 steels, FIG. 4, H=12.8, p=0.047) was “statistically significant difference”. For the same sequence, the “difference in pixel counts between treatments” value ([3]; β1 steels, FIG. 5, H=10.6, p=0.103) was “no significant difference”, the “difference in pixel counts between treatments” value ([3]; β steels (number not given), FIG. 5, H=10.9, p=0.09) was “no significant difference” and the “change of pixel number” value ([4]; after 2 weeks) was “remained relatively constant”. For the same sequence, the “change of pixel number” value ([4]; between 1 and 2 weeks) was “decreased considerably”, the pixels above threshold ([4]; nitrided titanium, after 1, 2, 3 and 4 weeks in PBS solution) was “Pixels were observed above the threshold” and the “percentage effectiveness of the coated surfaces compared to control surfaces” value (bacteria [5]; city hospital setting, all time points over three months, FIG. 12B) was at least 99%. For the same sequence, the “levels of bacteria on peptide-coated surfaces” value (bacteria [5]; door handles, Outpatients area of a city hospital, FIG. 12) was 1 cfu, the effectiveness (bacteria [5]; door handles, Outpatients area, Example 9) was “greater than 99%” and the “absorbance (bacteria number growing on the surface)” value (bacteria [6]) was “very low absorbance values”. For the same sequence, the “preferential binding to steel type” value ([7]; comparison of eight steel types) was “highest binding affinity for alpha steel types”, the “mean pixel counts (peptide attachment)” value ([7]; eight steel types (α1-3, β1-3, P1-P2), fluorescently tagged peptide) was “above 0” and the “percentage effectiveness of the coated surfaces compared to control surfaces” value (bacteria [8]; hospital setting, all time points over three months, FIG. 11B) was at least 99%. The “inhibition of bacterial growth on coated surfaces” value (bacteria [8]; hospital unit, three months, FIG. 11) was “complete inhibition of bacterial growth”, the “colony forming units on the one coated plate that showed growth” value (bacteria [8]; month 2, believed due to contamination during swabbing or plating) was “one” and the “inhibition of bacterial growth on treated surfaces” value (bacteria [9]) was “inhibition of bacterial growth was still observed”.
